From patent publication US7125850B2, “Methods of identifying inhibitors of GADD45 polypeptide activity, and inhibitors of such activity” (The United States of America as represented by the …, priority 1999, dated 2006)

B1: NAP-1: negative control protein of similar size and charge as GADD45 (protein, UniProt P55209 2-388, looked up)
Nucleosome assembly protein …: ADIDNKEQSELDQDLDDVEEVEEEETGEETKLKARQLTVQMMQNPQILAALQERLDGLVETPTGYIESLPRVVKRRVNALKNLQVKCAQIEAKFYEEVHDLERKYAVLYQPLFDKRFEIINAIYEPTEEECEWKPDEEDEISEELKEKAKIEDEKKDEEKEDPKGIPEFWLTVFKNVDLLSDMVQEHDEPILKHLKDIKVKFSDAGQPMSFVLEFHFEPNEYFTNEVLTKTYRMRSEPDDSDPFSFDGPEIMGCTGCQIDWKKGKNVTLKTIKKKQKHKGRGTVRTVTKTVSNDSFFNFFAPPEVPESGDLDDDAEAILAADFEIGHFLRERIIPRSVLYFTGEAIEDDDDDYDEEGEEADEEGEEEGDEENDPDYDPKKDQNPAEC
B2: rGADD45: full length recombinant human GADD45 polypeptide (SEQ ID NO:2), bacterially expressed, histidine tag removed (protein, listed as Rattus norvegicus)
chain: MTLEEFSAAEQKIERMDTVGDALEEVLSKARSQRTITVGVYEAAKLLNVDPDNVVLCLLAADEDDDRDVALQIHFTLIRAFCCENDINILRVSNPGRLAELLLLENDKSPAESGGLAQTPDLHCVLVTNPHSSQWKDPALSQLICFCRESRYMDQWVPVINLPER
modifications: rat growth arrest and DNA-damage-inducible protein (rGADD45)
B3: GADD45 Δ125–166: truncated rGADD45 containing the first 124 amino acid residues (protein, listed as Homo sapiens)
chain: MTLEEFSAGEQKTERMDKVGDALEEVLSKALSQRTITVGVYEAAKLLNVDPDNVVLCLLAADEDDDRDVALQIHFTLIQAFCCENDINILRVSNPGRLAELLLLETDAGPAASEGAEQPPDLHC
B4: GADD45 Δ72–166: truncated rGADD45 containing the first 71 amino acid residues (protein, listed as Homo sapiens)
chain: MTLEEFSAGEQKTERMDKVGDALEEVLSKALSQRTITVGVYEAAKLLNVDPDNVVLCLLAADEDDDRDVAL

How the values were obtained:
cellular Cdc2 = target: T1, cellular Cdc2 (Homo sapiens, UniProt P06493); assay: GST pull-down from RKO cell lysate, immunoblot for Cdc2; type: binding; details: 100 ng protein, 1 mg RKO cellular protein
T1 construct: GST-GADD45 fusion protein were incubated with one mg of RKO cellular protein; endogenous in cells; host or cells: RKO (human colon carcinoma)
From the text: For these experiments, a recombinant glutathione-S-transferase (GST)/GADD45 fusion protein was constructed. The GADD45 insert was PCR amplified from pHul45B2 using the following primers: (SEQ ID NO:3) 5′[…] 3′ and (SEQ ID NO:4) 5′[…] 3′. Products were cloned into a pcrII vector using the TA cloning kit (Invitrogen, San Diego, Calif.). A representative clone was confirmed by sequencing. The selected insert was removed by XhoI and NotI digestion, gel purified using the Wizard DNA Purification Kit (Promega, Madison, Wis.), and ligated into the XhoI/ NotI digested pGEX4T vector (Pharmacia, Piscataway, N.J.). GST-GADD45 fusion protein induction was prepared from freshly transformed BL21 bacterial cells (Novagen). 150 ml of overnight culture was diluted into 1L of LB with ampicillin and grown at 37° C. to late growth phase (OD600 was approximately 0.8). […]
To detect binding of cellular Cdc2 to GST-tagged GADD45, 100 ng of GST or GST-GADD45 fusion protein were incubated with one mg of RKO cellular protein for 4 hr at […]. […] Antibody was detected by a chemiluminescence system in accordance with the instructions of the manufacturer (Amersham, Buckinghamshire, England)
GST-GADD45 fusion protein or GST alone, which were linked to Sepharose beads, were incubated with cellular lysates, isolated, and analyzed by immunoblotting, as described above.

Cdc2/Cyclin B1 complex [1] = target: T2, Cdc2/Cyclin B1 complex (Homo sapiens, UniProt P06493); assay: Wash off assay: dissociation of immunoprecipitated Cdc2/Cyclin B1 complexes; type: biochemical; design: One mg of cellular protein was immunoprecipitated with anti-Cyclin B1 antibody and protein A agarose beads; endogenous in cells; host or cells: RKO (human colon carcinoma); details: 0-500 ng protein, 15 min at 25 C
Protocol: Since GADD45 inhibited Cdc2/Cyclin B1 activity, but only associated with Cdc2, the possibility was considered that GADD45 acts by dissociating this complex. To test this, anti-Cyclin B1 antibody was used to precipitate cellular Cdc2/cyclin B1 complexes (as above). A “wash off assay” was then carried out in the presence of GADD45. Briefly, RKO cellular protein was immunoprecipitated with anti-Cyclin B1 antibody. The immunoprecipitates were washed 3 times with lysis buffer and twice with 10 mM Tris-HCl (pH 7.5), 10 mM Mg Cl2. Samples were then suspended in […] of 10 mM Tris-HCl (pH 7.5), 10 mM MgCl2. Various amounts of rGADD45 (0, 50, 100, 200, 500 ng) or NAP1 (0, 200, 500 ng) was added to the Cdc2/Cyclin B1 immunocomplexes and incubated for 15 min at 25° C. Following incubation, immunoprecipitates were washed twice with lysis buffer, loaded onto SDS-PAGE gel for electrophoresis, and the membrane was immunoblotted with monoclonal Cdc2 antibody for the detection of Cdc2 protein. Prior to the final immunoprecipitation, an aliquot of the solution was analyzed by immunoblotting with an anti-Cyclin B1 antibody to confirm uniform loading. […] To confirm uniform levels of Cyclin B1, the amount of Cyclin B1 was measured by immunoblotting.
Target sequence in this assay (P06493 whole entry, one chain of several): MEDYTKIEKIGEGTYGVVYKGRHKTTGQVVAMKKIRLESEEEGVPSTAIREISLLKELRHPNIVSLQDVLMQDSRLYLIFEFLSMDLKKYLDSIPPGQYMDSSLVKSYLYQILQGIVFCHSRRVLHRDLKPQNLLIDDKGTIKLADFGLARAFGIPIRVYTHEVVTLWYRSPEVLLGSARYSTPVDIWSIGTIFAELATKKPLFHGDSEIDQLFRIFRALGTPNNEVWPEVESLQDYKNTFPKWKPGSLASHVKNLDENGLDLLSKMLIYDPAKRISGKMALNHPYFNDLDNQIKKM

Cdc2/Cyclin B1 complex [2] = target: T2, Cdc2/Cyclin B1 complex; assay: Histone H1 kinase assay with purified Cdc2-Cyclin B1 complexes; type: biochemical; design: purchased Upstate Biotechnology, Lake Placid, N.Y; details: for inhibition of histone H1 kinase activity of purified Cdc2/Cyclin B1 complex: 100 ng complex, varying amounts of protein up to 500 ng
Protocol: In one experiment, 100 ng purified Cdc2-cyclin B1 complexes (Upstate Biotechnology, Lake Placid, N.Y.) were incubated with varying amounts of full length rGADD45 or negative control (NAP 1, Tjandra (1998) Curr. Biol. 8:991–1000; Fujii-Nakata (1992) J. Biol. Chem. 267:20980–20986) polypeptides. For full length rGADD45: 0, 10, 20, 50, 100, 200, and 500 ng were used. For the control (NAP1): 0, 100, 200, and 500 ng were used.
Histone H1 kinase assays were then performed. Briefly, purified Cdc2-Cyclin B1 complexes (Upstate Biotechnology, Lake Placid, N.Y.) were incubated with the indicated amounts of rGADD45 or NAP1 proteins for 5 minutes. Histone H1 kinase assays were then performed in the presence of […] of histone H1 (Upstate, Lake Placid, N.Y.), 15 mM MgCl2, 7 mM β-glycerol phosphate, 1.5 mM EGTA, 0.25 mM sodium orthvanadate, 0.25 mM DTT and […] of [g-32P]ATP in 25 μl. After 15 min at 37° C., the reactions were mixed with an equal amount of standard 2× SDS protein denaturation loading buffer, size-separated on a 12% SDS-PAGE gel, and analyzed by autoradiography.
rGADD45 proteins were prepared as described by Carrier (1994) supra. The rGADD45 proteins that were manufactured included, in addition to the full-length polypeptide, truncated forms containing the first 124 amino acid residues (designated “GADD45 Δ125–166”) or the first 71 amino acid residues (designated “GADD45 Δ72–166”) (see sequence and residue notation of SEQ ID NO:2).
For the histone assays comparing the inhibitory activity of full length and truncated GADD45 constructs, instead of loading samples onto the gel for electrophoretic analysis, […] aliquots were spotted on phosphocellulose paper and then washed three times with 0.75% phosphoric acid. After an acetone rinse, the radioactivity was measured by scintillation counting. The results are the average of three separate experiments.
Target sequence in this assay (P06493 whole entry, species assumed, one chain of several): as the sequence (P06493 whole entry, one chain of several) above

Cdc2/Cyclin B1 complexes = target: T3, Cdc2/Cyclin B1 complexes (Homo sapiens, UniProt P06493); assay: ELISA binding of rGADD45 proteins to purified Cdc2/Cyclin B1; details: 40 ng protein; for binding to Cdc2/Cyclin B1 in ELISA: 100 ng complex coated
T3 construct: purchased Upstate Biotechnology, Lake Placid, N.Y
Protocol: Immulon II immunoabsorption plates (Dynatech) were coated with 100 ng of Cdc2/Cyclin B1 complexes (Upstate Biotechnology, Lake Placid, N.Y.) in PBS and incubated overnight at 4° C. After rinsing with PBST (PBS with 0.05% Tween-20) and blocking in 5% nonfat milk in PBST, 40 ng of either full length or truncated (both deletion constructs, as described above) rGADD45 protein were added. Following incubation for one hour at room temperature, the plates were washed and an anti-GADD45 antibody (Zymed, San Francisco, Calif.) was added at a 1:1000 dilution in PBST with 0.5% milk (PBSTM). After 1 hr at 25° C., the plates were washed, and HRP-anti-rabbit antibody diluted at 1:1000 in PBS™ was added before final washes and development using the 1-step TMB Solution (Pierce, Rockford, Ill.). Development was halted by the addition of 50 μl of 1M H2SO4, and optical density was measured using a platereader.

Cdk2/Cyclin E = Cdk2/Cyclin E (Homo sapiens, UniProt P24941); assay: Cdk2/Cyclin E histone H1 kinase assay; type: biochemical; details: up to 3600 ng of full length rGADD45
Cdc2/Cyclin B1 complex [3] = target: T2, Cdc2/Cyclin B1 complex; assay: Histone H1 kinase assay with Cdc2/cyclin B1 complex immunoprecipitated from RKO cell lysate; type: biochemical; design: One mg of cellular protein was immunoprecipitated with anti-Cyclin B1 antibody and protein A agarose beads; endogenous in cells; host or cells: RKO (human colon carcinoma); details: RKO lysate immunoprecipitate
Protocol: A monoclonal antibody against cyclin B1 was next used to immunoprecipitate Cdc2/cyclin B1 complex from a lysate of human cells. Antibodies against human Cdc2, c-Myc, and NAP-1 were obtained from Santa Cruz Biotechnology, Santa Cruz, Calif. […] The human colon carcinoma line RKO was grown in modified Ham's F12 medium supplemented with 10% fetal bovine serum.
For immunoprecipitation, exponentially growing RKO cells were lysed on ice for 30 min in lysis buffer consisting of 50 mM Tris-HCl (pH 7.5), 120 mM NaCl, 1% NP-40, […], […] and […] of phenylmethylsulfony fluoride. One mg of cellular protein was immunoprecipitated with anti-Cyclin B1 antibody and protein A agarose beads for 4 hr at 4° C. The immunoprecipitates were washed three times with lysis buffer and then loaded onto a SDS-PAGE gel for immunoblot analysis. The presence of Cdc2/Cyclin B1 was confirmed by immunoblotting.
In contrast, rGADD45 had no effect on Cdk2/Cyclin E histone H1 kinase activity. […]
Target sequence in this assay (P06493 whole entry, one chain of several): as above

T3 sequence (P06493 whole entry, species assumed, one chain of several): as the sequence (P06493 whole entry, one chain of several) above
T1 sequence (P06493 whole entry, the tested form may be a part): as the sequence (P06493 whole entry, one chain of several) above

Row | Molecule | Cdc2 level remaining in Cyclin B1 immune complexes (dissociation of complex) (Cdc2/Cyclin B1 complex [1]) | inhibition of histone H1 kinase activity of purified Cdc2/Cyclin B1 complex (Cdc2/Cyclin B1 complex [2]) | binding to Cdc2/Cyclin B1 in ELISA (Cdc2/Cyclin B1 complexes) | also measured
1 | GST: glutathione-S-transferase alone, linked to Sepharose beads, control [reference compound] |  |  |  | association with cellular Cdc2 (cellular Cdc2): no Cdc2 was detected
2 | B1 | no effect | no appreciable effect |  | 
3 | B2 | did reduce the Cdc2 level | strongly inhibited | significant binding over background level | effect on Cdk2/Cyclin E histone H1 kinase activity (Cdk2/Cyclin E): no effect; Cdc2/Cyclin B1 histone kinase activity, % of control (Cdc2/Cyclin B1 complex [2]; 50 ng protein): less than 40%; inhibition of histone phosphorylation by Cdc2/Cyclin B1 (Cdc2/Cyclin B1 complex [2]; larger amounts than 50 ng): strong inhibition; inhibition of enzymatic activity of isolated (immunoprecipitated) Cdc2/cyclin B1 complex (Cdc2/Cyclin B1 complex [3]): progressive inhibition
4 | B3 |  | able to inhibit | significant binding over background level | binding relative to full-length rGADD45 protein (Cdc2/Cyclin B1 complexes): 77%
5 | B4 |  | failed to inhibit | No appreciable binding | 
